No end group written: not given here.
B1: PACAP 38 (SEQ ID NO: 4-NH2) (ligand)
peptide: HSDGIFTDSYSRYRKQMAVKKYLAAVLGKRYKQRVKNK-NH2
B2: PACAP 6-38 (SEQ ID NO: 6-NH2) (peptide)
peptide: FTDSYSRYRKQMAVKKYLAAVLGKRYKQRVKNK-NH2
B3: PACAP 27 (SEQ ID NO: 5-NH2) (ligand)
peptide: HSDGIFTDSYSRYRKQMAVKKYLAAVL-NH2
B4: PACAP 6-27 (SEQ ID NO: 7-NH2) (peptide)
peptide: FTDSYSRYRKQMAVKKYLAAVL-NH2

Tests used:
[1] = biological target: PACAP receptor in rat brain crude membrane (rat); experiment: displacement of [^125 I]PACAP 27 from rat brain crude membranes
[2] = biological target: PACAP receptor in rat brain crude membrane (rat); experiment: displacement of [^125 I]MAX from rat brain crude membranes
[3] = biological target: PACAP receptor in rat brain crude membrane (rat); experiment: displacement of [^125 I]MAX and [^125 I]PACAP 27 from rat brain crude membranes; reference M65

Molecule	IC50 [1] [nM]	IC50 [2] [nM]	fold of IC50 against M65 [3] [times]
M65 (SEQ ID NO: 3) (peptide)	5.96	2.96	–
B1	4.45	1.91	–
B2	39.1	8.35	6 to 10
B3	9.55	2.16	–
B4	1030	235	–
